How the values were obtained:
CRKL [1] = target: T1, CRKL (Homo sapiens, UniProt P46109); assay: Phage binding assay on purified recombinant protein; set-up: The open reading frame of full-length CRKL cDNA (Invitrogen) was PCR-amplified and cloned in a pET28a (Novagen) expression vector; His-tag; made in house; host or cells: E. coli BL21
Description: Phage binding assays on purified proteins were carried out as described (Giordano et al. 2001). Recombinant proteins were coated on microtiter wells as previous described (Cardo-Vila et al., 2003; Smith and Scott, 1993). Briefly, proteins were immobilized on microtiter wells overnight at 4° C. 50 μl of 1 μg/ml in PBS. Wells were washed twice with PBS, blocked with PBS containing 3% BSA for 2 hours at room temperature, and incubated with 10^9 T.U. wild-type tumor-homing phage ([…]; SEQ ID NO:1), scrambled phage ([…] (SEQ ID NO:26), […] (SEQ ID NO:27), […] (SEQ ID NO:29), […] (SEQ ID NO:30)), mutant phage ([…] (SEQ ID NO:25), […] (SEQ ID NO:28)), PSI-derived cyclic phage (CNSTFLQEGMPTSAC; SEQ ID NO:23) or fd-tet phage in 50 μl of PBS containing 1.5% BSA. After 1 hour at room temperature, wells were washed ten times with PBS and phage were recovered by bacterial infection. ELISA with polyclonal anti-CKRL confirmed the presence and concentration of the CKRL recombinant proteins on the wells. […] After 3 hours, binding of CKRL to integrins was detected by using an anti-CKRL antibody followed by an HRP-conjugated anti-rabbit IgG. […]

CRKL [2] = target: T1, CRKL; assay: Binding assays with recombinant gst-PSI fusion proteins
Source text: FIG. 3A-D: Receptor binding by peptides. FIG. 3A, the recombinant His-tag CRKL (rCRKL), rCRKL-SH3 (N) domain, and rCRKL-SH3 (C) domain bind to the tumor-homing peptide-[…] (SEQ ID NO:1). FIG. 3B, the recombinant His-tag rCRKL, rCRKL-SH3 (N) domain, and rCRKL-SH3 (C) domain bind to the synthetic peptide NSTFLQEGMPTSA (SEQ ID NO:23) corresponding to a region in the PSI domain. FIG. 3C, recombinant gst fusion protein of the entire PSI domain (residues 22-82. SEQ ID NO: 71-[…]), gst-PSI linear (residues 48-62, SEQ ID NO: 72-TNSTFLQEGMPTSAR), gst-PSI cyclic (residues […], SEQ ID NO: 72-CTNSTFLQEGMPTSARC) were generated for binding assays. Both the linear and the cyclic PSI-derived regions bind to CRKL. FIG. 3D, the binding activity of the tumor-homing peptide to rCRKL-SH3 (C) domain is inhibited by the tumor-homing ([…]; SEQ ID NO:1) peptide, by the PSI-derived (NSTFLQEGMPTSA; SEQ ID NO:23) peptide or tumor-homing phage displaying SEQ ID NO:1. Bars represent mean±standard deviation from triplicate wells.
CRKL mutants in the SH3 domain (carboxyl terminal) were generated by PCR mutagenesis. Primer sets were designed to remove 60 bp (Δ1 and Δ2) and 54 bp (Δ3) and maintain the reading frame. For the PSI domain constructs, cyclic and linear peptide forms of the PSI domain were produced. […] Protein-protein interactions were detected by using an antibody against gst.

DU145 cells = assay: Peptide internalization assay (WST-1 cell viability, annexin-V staining); assay type: cell-based, human; details: DU145 cells; measured by cell viability and annexin-V
Description: The internalization capability of the tumor-homing peptide fused through a glycinylglycine bridge to a pro-apoptotic sequence was tested as described Arap et al., 2004; Ellerby et al., 1999; Kolonin et al., 2004; Zurita et al., 2004). The conjugated tumor-homing peptide, […] (SEQ ID NO:67)-D(KLAKLAK)2 or the untargeted control peptide D(KLAKLAK)2 were synthesized and increasing equimolar peptide concentrations were added to the DU145 cells. Cell viability was assayed by the WST-1 reagent (Roche) and annexin-V staining for apoptosis (Zurita et al., 2004; Cardo-Vila et al., 2003). For tumor-homing phage localization studies, cells were incubated with 10^9 T.U. tumor-homing ([…]; SEQ ID NO:1) or a negative control (fd-tet) phage for 6 and 24 hours. Wells were washed with 20 mM glycine to remove non-specific cell surface bound phage and then fixed with 4% paraformaldehyde. The non-permeabilized cells were incubated with rabbit anti-fd bacteriophage antibody (Sigma) for 2 hours at room temperature followed by 1 hour incubation with Cy3-labeled anti-rabbit IgG antibody (Jackson ImmunoResearch). Cells were again fixed with 4% paraformaldehyde and mounted in the presence of DAPI (Vector Laboratories) and images were acquired with an Olympus fluorescence microscope.

rCRKL = target: T2, rCRKL (Homo sapiens, UniProt P46109); assay: Peptide binding assay with recombinant His-tag proteins (ELISA); details: peptide coated on microtiter plates
T2 construct: The open reading frame of full-length CRKL cDNA (Invitrogen) was PCR-amplified and cloned in a pET28a (Novagen) expression vector; His-tag; made in house; host or cells: E. coli BL21
T2 sequence (P46109 whole entry): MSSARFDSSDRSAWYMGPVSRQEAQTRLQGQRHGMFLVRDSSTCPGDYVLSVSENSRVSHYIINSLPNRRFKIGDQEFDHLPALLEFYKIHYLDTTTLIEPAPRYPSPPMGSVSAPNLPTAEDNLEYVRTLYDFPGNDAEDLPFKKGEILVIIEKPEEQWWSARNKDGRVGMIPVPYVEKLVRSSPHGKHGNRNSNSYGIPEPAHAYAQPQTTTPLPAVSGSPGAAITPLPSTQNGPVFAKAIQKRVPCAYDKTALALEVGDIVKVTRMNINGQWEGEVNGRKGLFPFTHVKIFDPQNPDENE
Description: (§1) Synthetic tumor-homing peptide ([…]; SEQ ID NO:1) or PSI-derived peptide (NSTFLQEGMPTSA; SEQ ID NO:23) were coated on microtiter plates followed by blocking, and washing. The following recombinant His-tag proteins were added to the coated plates: rCRKL, rCRKL-SH2 domain, rCRKL-SH3 (N) domain, and rCRKL-SH3 (C) domain. An unrelated control protein (α2-Heremans-Schmid glycoprotein; AHSG) served as a negative control. The mixtures were incubated, washed, and labeled with the appropriate antibodies. Secondary antibodies conjugated to horse-radish peroxidase (HRP) were added followed by adding TMB substrate (Calbiochem), and analyzed by an automated ELISA reader (Bio-Tek). To determine the inhibitory activity of the tumor-homing peptide, the PSI-derived peptide, or the phage clone displaying the corresponding tumor-homing peptide were incubated with the rCRKL-SH3 (C) domain. Unrelated cyclic peptide sequences and insertless phage (fd-tet) served as negative controls. The admixtures were incubated and added to wells coated with the tumor-homing peptide. After incubation, the wells were washed, labeled with the appropriate antibodies, and processed as above.

rCRKL-SH2 domain = target: T3, rCRKL-SH2 domain (Homo sapiens, UniProt P46109); assay: as above; details: peptide coated on microtiter plates
T3 construct: cDNAs corresponding to each of the SH domains were PCR-amplified and cloned into the Sac I and Xho I restriction sites; His-tag; made in house; host or cells: E. coli BL21
T3 sequence (P46109 14-102 limits assumed): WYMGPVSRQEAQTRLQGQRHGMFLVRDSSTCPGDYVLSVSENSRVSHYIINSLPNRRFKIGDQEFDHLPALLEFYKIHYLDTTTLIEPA
Description: as §1

rCRKL-SH3 (C) domain [3] = target: T4, rCRKL-SH3 (C) domain (Homo sapiens, UniProt P46109); assay: as above
T4 construct: cDNAs corresponding to each of the SH domains were PCR-amplified and cloned into the Sac I and Xho I restriction sites; His-tag; made in house; host or cells: E. coli BL21
T4 sequence (P46109 235-296 limits assumed): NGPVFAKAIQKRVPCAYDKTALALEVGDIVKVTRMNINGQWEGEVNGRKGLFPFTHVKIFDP
Description: as §1

rCRKL-SH3 (N) domain = target: T5, rCRKL-SH3 (N) domain (Homo sapiens, UniProt P46109); assay: as above; details: peptide coated on microtiter plates
T5 construct: cDNAs corresponding to each of the SH domains were PCR-amplified and cloned into the Sac I and Xho I restriction sites; His-tag; made in house; host or cells: E. coli BL21
T5 sequence (P46109 123-183 limits assumed): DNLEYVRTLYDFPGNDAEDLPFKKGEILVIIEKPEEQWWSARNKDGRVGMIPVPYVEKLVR
Description: as §1

rCRKL-SH3 (C) domain [4] = target: T4, rCRKL-SH3 (C) domain; assay: Inhibition of rCRKL-SH3 (C) domain binding to coated tumor-homing peptide; details: inhibitor pre-incubated with rCRKL-SH3 (C)
Description: as §1

[5] = system: human prostate cancer xenografts (DU145-derived); assay: Therapy in tumor-bearing mice (tumor volume); assay type: in vivo, nude mice; details: equimolar amounts, systemically administered, vs untreated or vehicle
Source text: Finally, a pilot pre-clinical trial that included four cohorts of size-matched tumor-bearing mice was designed and conducted (FIG. 11). Animals received the following reagents: (i) the synthetic PSI domain-mimic peptide, (ii) the synthetic PSI domain-mimic peptide linked to a pro-apoptotic peptidomimetic (Arap et al., 2004; Ellerby et al., 1999; Kolonin et al., 2004; Zurita et al., 2004) in order to induce targeted apoptosis upon receptor-mediated internalization, (iii) the synthetic pro-apoptotic peptidomimetic alone, or (iv) vehicle alone. All peptides or peptidomimetics were administered at equimolar concentrations.
DU145 tumor-bearing mice were size-matched and divided into individual cohorts (n=4 mice per group). The tumor-homing peptide […] (SEQ ID NO:1) was synthesized fused with the proapoptotic motif D(KLAKLAK)2. Unconjugated peptide […] (SEQ ID NO:1) or D(KLAKLAK)2 served as controls. The synthetic peptides were systemically administered and tumor volumes measured as described (Arap et al., 1998; Arap et al., 2004).

T1 sequence (P46109 whole entry): as the sequence (P46109 whole entry) above

CNSTFLQEGMPTSAC [PSI-derived phage]
phage binding to recombinant CRKL (CRKL [1]): bind

CTNSTFLQEGMPTSARC [gst-PSI cyclic]
binding to CRKL (CRKL [2]): bind

TNSTFLQEGMPTSAR (left off: a dimerising Fc or GST; large carriers; small tags and cut ends) [gst-PSI linear, recombinant gst fusion of linear PSI region, residues 48-62]
binding to CRKL (CRKL [2]): bind

YRCTLNSPFFWEDMTHECHA (listed as Homo sapiens) [Peptide 6]
internalization (DU145 cells): mediates ligand-directed internalization | binding to rCRKL (rCRKL): bound | binding through the SH2 domain (rCRKL-SH2 domain): little to no binding | binding attributes to the CRKL-SH3 (C) domain (site-directed mutagenesis) (rCRKL-SH3 (C) domain [3]): dependent on the Pro residue and on the cyclic Cys-Cys disulfide bridge | binding to rCRKL-SH3 (C) domain (rCRKL-SH3 (C) domain [3]; peptide coated on microtiter plates): bind | binding to rCRKL-SH3 (N) domain (rCRKL-SH3 (N) domain): bind | inhibition of binding of the tumor-homing peptide to rCRKL-SH3 (C) domain (rCRKL-SH3 (C) domain [4]): inhibited | tumor growth / tumor volume [5]: no differences in tumor volume | tumor growth / tumor volume ([5]; listed as PSI domain-mimic peptide): no detectable effect

— US20110189095A1, “CRKL TARGETING PEPTIDES” (The Board of Regents, of the University of Texas System, priority 2008, published 2011)
